{
  "source": "patent US20020182656",
  "proteins": {"B1": {"name": "Human recombinant GNK (hu-rGNK) (protein)", "chain": "MSVLGEYERHCDSINSDFGSESGGCGDSSPGPSASQGPRAGGGAAEQEELHYIPIRVLGRGAFGEATLYRRTEDDSLVVWKEVDLTRLSEKERRDALNEIVILALLQHDNIIAYYNHFMDNTTLLIELEYCNGGNLYDKILRQKDKLFEEEMVVWYLFQIVSAVSCIHKAGILHRDIKTLNIFLTKANLIKLGDYGLAKKLNSEYSMAETLVGTPYYMSPELCQGVKYNFKSDIWAVGCVIFELLTLKRTFDATNPLNLCVKIVQGIRAMEVDSSQYSLELIQMVHSCLDQDPEQRPTADELLDRPLLRKRRREMEEKVTLLNAPTKRPRSSTVTEAPIAVVTSRTSEVYVWGGGKSTPQKLDVIKSGCSARQVCAGNTHFAVVTVEKELYTWVNMQGGTKLHGQLGHGDKASYRQPKHVEKLQGKAIHQVSCGDDFTVCVTDEGQLYAFGSDYYGCMGVDKVAGPEVLEPMQLNFFLSNPVEQVSCGDNHVVVLTRNKEVYSWGCGEYGRLGLDSEEDYYTPQKVDVPKALIIVAVQCGCDGTFLLTQSGKVLACGLNEFNKLGLNQCMSGIINHEAYHEVPYTTSFTLAKQLSFYKIRTIAPGKTHTAAIDERGRLLTFGCNKCGQLGVGNYKKRLGINLLGGPLGGKQVIRVSCGDEFTIAATDDNHIFAWGNGGNGRLAMTPTERPHGSDICTSWPRPIFGSLHHVPDLSCRGWHTILIVEKVLNSKTIRSNSSGLSIGTVFQSSSPGGGGGGGGGEEEDSQQESETPDPSGGFRGTMEADRGMEGLISPTEAMGNSNGASSSCPGWLRKELENAEFIPMPDSPSPLSAAFSESEKDTLPYEELQGLKVASEAPLEHKPQVEASSPRLNPAVTCAGKGTPLTPPACACSSLQVEVERLQGLVLKCLAEQQKLQQENLQIFTQLQKLNKKLEGGQQVGMHSKGTQTAKEEMEMDPKPDLDSDSWCLLGTDSCRPSL"}},
  "molecular_target": "T1, Purified, recombinant sGNK",
  "T1 chain": "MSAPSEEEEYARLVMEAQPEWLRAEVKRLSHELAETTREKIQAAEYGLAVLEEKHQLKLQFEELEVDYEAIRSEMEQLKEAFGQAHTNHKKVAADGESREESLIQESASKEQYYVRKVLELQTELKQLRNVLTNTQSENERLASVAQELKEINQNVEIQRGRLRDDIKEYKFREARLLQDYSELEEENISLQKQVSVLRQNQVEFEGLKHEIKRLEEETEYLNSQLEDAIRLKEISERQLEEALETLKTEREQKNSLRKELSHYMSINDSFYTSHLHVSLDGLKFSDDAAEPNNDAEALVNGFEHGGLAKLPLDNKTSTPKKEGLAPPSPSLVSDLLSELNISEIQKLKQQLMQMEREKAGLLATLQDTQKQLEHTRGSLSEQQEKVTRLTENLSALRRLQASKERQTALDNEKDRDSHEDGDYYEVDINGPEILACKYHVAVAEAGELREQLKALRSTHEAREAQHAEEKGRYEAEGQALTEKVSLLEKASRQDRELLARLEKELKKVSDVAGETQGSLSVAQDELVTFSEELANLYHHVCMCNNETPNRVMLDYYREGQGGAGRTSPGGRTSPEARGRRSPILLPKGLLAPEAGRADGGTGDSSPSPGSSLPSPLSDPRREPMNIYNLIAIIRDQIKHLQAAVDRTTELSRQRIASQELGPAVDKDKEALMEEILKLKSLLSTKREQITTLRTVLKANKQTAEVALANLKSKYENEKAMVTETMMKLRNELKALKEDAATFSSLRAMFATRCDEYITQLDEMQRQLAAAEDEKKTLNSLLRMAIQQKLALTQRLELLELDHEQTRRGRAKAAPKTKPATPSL",
  "data": [
    {"protein": "B1", "values": [
      {"measurement": "phosphorylation of sGNK by GNK (kinase assay with gamma-32P-ATP, SDS-PAGE, Phosphoimager)", "result": "GNK-mediated phosphorylation of sGNK was demonstrated using the kinase assay described above, except purified, recombinant sGNK was added to the kinase reaction mixture"}
    ]}
  ]
}
